Data taken from article PMC9035508.

How the values were obtained:
Test in all cases: ELISA; FXIII proteins or collagen type III coated on wells at 10 µg/mL (overnight, 4°C), blocked with 0.5% BSA; GPVI-Fc2 added at varied concentrations; bound GPVI detected by 1G5/IRDye 800CW anti-mouse antibody; KD from binding curves (Figure 1B)
[1] = target: FXIII A-subunit (activated) (rh-FXIIIAa), thrombin-activated form of rh-FXIIIA2 (human) (UniProt P00488)
[2] = target: FXIII A-subunit (rh-FXIIIA2), recombinant, not fully activated form (human) (UniProt P00488)
[3] = target: Plasma FXIII (FXIIIA2B2), tetrameric, not activated (human) (UniProt P00488)
collagen type III = collagen type III (UniProt P02461)
Sequence of UniProt P02461 (P02461 24-1221): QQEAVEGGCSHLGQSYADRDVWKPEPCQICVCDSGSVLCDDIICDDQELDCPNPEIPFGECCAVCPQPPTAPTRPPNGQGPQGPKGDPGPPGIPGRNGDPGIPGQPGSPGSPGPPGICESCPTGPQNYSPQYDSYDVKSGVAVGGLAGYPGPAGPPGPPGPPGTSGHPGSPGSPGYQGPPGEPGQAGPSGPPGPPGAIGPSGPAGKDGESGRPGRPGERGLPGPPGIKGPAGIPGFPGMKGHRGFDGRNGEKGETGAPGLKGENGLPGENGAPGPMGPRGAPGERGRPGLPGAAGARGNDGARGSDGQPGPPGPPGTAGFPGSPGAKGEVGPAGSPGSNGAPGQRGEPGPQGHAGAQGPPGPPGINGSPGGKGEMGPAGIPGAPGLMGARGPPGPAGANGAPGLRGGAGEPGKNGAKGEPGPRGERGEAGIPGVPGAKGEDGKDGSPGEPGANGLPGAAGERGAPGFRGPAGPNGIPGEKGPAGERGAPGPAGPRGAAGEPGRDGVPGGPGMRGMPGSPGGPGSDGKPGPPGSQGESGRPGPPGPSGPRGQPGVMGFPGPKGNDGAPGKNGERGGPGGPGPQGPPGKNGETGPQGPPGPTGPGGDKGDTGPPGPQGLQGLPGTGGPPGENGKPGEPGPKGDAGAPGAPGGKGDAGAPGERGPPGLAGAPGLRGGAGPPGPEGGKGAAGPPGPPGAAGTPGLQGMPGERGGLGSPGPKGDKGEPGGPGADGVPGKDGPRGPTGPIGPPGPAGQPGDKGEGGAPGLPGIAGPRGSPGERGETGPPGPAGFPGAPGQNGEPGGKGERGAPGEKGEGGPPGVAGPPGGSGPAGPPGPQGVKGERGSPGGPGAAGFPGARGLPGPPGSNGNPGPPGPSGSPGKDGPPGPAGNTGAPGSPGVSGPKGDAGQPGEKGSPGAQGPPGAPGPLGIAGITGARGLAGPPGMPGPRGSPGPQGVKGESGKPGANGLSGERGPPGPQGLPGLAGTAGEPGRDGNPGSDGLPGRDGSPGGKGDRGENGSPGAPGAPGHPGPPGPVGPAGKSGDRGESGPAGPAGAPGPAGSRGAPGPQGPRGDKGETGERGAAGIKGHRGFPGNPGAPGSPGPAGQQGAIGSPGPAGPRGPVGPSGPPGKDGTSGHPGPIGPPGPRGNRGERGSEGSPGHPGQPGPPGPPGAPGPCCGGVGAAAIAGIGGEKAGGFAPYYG

- Kd [1]: 0.14 µM
- Kd [2]: 0.366 µM
- Kd [3]: 0.216 µM
- Kd (collagen type III): 0.183 µM
Substance: GPVI-Fc2 (recombinant human GPVI extracellular domain, dimer) (from UniProt Q9HCN6 21-267) (Fc fusion)
